Consider 5 molecules from US20250129168A1 (DREN BIO, published 2025).

Assay [1] deals with T1, human Dectin-1 isoform B (human, UniProt Q9BXN2 1-247).
T1 construct: On HEK-Blue hDectin-1b cells (Invivogen); also called hDectin-1b
T1 sequence: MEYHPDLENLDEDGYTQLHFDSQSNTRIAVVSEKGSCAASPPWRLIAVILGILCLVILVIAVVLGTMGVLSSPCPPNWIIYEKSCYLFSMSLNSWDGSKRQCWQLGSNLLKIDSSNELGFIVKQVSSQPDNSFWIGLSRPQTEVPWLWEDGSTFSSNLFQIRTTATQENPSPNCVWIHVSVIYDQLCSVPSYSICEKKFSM
Nature of the assay: flow cytometry on HEK-Blue hDectin-1b cells (summary table). On the technique in general: In flow cytometry, cells or beads pass a laser one at a time.

Assay [2] concerns the target T2, human Dectin-1 isoform A (human, UniProt Q9BXN2 1-247).
T2 construct: On HEK-Blue hDectin-1a cells (Invivogen); also called hDectin-1a
T2 sequence: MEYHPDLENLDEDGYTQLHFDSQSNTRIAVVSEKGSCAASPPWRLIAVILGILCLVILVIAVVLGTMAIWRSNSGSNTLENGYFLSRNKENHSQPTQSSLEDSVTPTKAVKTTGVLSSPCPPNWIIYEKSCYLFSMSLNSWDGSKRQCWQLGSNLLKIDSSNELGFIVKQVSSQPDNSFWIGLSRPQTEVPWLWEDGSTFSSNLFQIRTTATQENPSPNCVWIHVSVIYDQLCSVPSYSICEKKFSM
Put plainly: flow cytometry on HEK-Blue hDectin-1a cells.

Assay [3] deals with T2, human Dectin-1 isoform A. Nature of the assay: flow cytometry on HEK-Blue hDectin-1a cells (summary table).
The target of assay [4] is T2, human Dectin-1 isoform A. Nature of the assay: flow cytometry on HEK293F hDectin-1a FL cells (summary table).
The target of assay [5] is T2, human Dectin-1 isoform A. Nature of the assay: flow cytometry on HEK293F hDectin-1a FL cells.
In assay [6] the target is T3, human Dectin-1 (isoform not given) (human, UniProt Q9BXN2 1-247).
T3 chain: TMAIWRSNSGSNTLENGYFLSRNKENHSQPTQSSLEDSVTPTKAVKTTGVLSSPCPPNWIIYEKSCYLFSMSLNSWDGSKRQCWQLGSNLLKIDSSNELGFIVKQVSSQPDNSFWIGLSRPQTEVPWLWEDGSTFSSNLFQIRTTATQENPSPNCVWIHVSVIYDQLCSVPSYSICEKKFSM
Nature of the assay: flow cytometry on human monocytes.

For assay [7], the target named is T3, human Dectin-1 (isoform not given). Put plainly: flow cytometry on human monocytes (summary table).
The target is the same in assay [8]. Nature of the assay: cell-based or functional assay.
The target in assay [9] is T1, human Dectin-1 isoform B. Put plainly: flow cytometry on HEK-Blue hDectin-1b cells.
The target in assay [10] is T4, cynomolgus monkey Dectin-1 (cynomolgus monkey, UniProt A0A2K5UXY6 35-281).
T4 construct: whole, on cells; also called cynomolgus Dectin-1; cyno Dectin-1
T4 sequence: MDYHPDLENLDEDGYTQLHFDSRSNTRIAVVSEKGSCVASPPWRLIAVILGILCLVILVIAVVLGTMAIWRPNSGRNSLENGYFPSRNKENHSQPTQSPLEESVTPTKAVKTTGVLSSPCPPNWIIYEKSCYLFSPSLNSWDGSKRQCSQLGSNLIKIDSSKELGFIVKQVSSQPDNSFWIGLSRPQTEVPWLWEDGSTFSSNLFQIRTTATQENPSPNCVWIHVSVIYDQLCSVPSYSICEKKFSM
Nature of the assay: flow cytometry, cynomolgus monkey monocytes.

Assay [11] has as its target T5, Fc gamma receptor CD16a F variant (human, UniProt P08637).
T5 construct: recombinant protein coated on the ELISA plate; also called recombinant huCD16a
Nature of the assay: ELISA, plate coated with recombinant huCD16a (F variant), detection with peroxidase anti-human IgG F(ab')2, OD 450 nm - 630 nm. Background: An ELISA detects its analyte on a solid surface through an enzyme-linked reagent.

Assay [12] deals with T3, human Dectin-1 (isoform not given). Nature of the assay: flow cytometry on Dectin-1-expressing HEK cells.
A further assay deals with T6, Trop-2 (human, UniProt P09758 27-323).
T6 construct: whole, on cells
T6 sequence (looked up): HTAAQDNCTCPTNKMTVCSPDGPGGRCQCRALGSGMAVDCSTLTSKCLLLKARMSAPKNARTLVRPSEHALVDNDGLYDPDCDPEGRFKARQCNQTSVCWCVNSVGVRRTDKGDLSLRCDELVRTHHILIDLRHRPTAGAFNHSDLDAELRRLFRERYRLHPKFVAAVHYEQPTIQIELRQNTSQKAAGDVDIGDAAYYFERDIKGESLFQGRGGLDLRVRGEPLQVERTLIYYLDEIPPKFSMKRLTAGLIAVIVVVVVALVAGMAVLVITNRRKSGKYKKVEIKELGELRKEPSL
Put plainly: flow cytometry on A431 cells (Trop-2-expressing).

Assay [13] deals with T3, human Dectin-1 (isoform not given). Nature of the assay: flow cytometry on Dectin-1-expressing HEK cells, 4PL fit [upper panel].

T5 sequence (P08637 17-208 limits assumed, change not shown): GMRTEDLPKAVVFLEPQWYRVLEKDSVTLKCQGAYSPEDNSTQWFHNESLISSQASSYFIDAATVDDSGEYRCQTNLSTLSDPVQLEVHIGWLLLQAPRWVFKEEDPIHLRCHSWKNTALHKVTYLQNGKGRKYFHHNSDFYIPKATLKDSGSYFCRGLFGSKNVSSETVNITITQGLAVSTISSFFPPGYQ

B1: commercial anti-Dectin-1 antibody 15E2 (antibody, V domains shown)
VH: QWQLQQSGAELARPGASWKMSCKASGYTFTTYTMHWWKQRPGQGLEWIGYINPSSGYTNYNQKFKDKATLTADKSSSTASMQLSSLTSEDSAWYYCARERAVLVPYAMDYWGQGTSVTVSS
VL: QIVLTQSPAVMSASPGEKWTITCTASSSLSYMHWFQQKPGTSPKLWLYSTSILASGVPTRFSGSGSGTSYSLTISRMEAEDAATYYCQQRSSSPFTFGSGTKLEIK
In the case of B1, the concentration giving a half-maximal response (EC50) was determined as 9.3 nM with human Dectin-1 isoform B [1]; 1.2 nM in the assay with human Dectin-1 isoform A [2]; 1.2 nM with human Dectin-1 isoform A [3]; 1.4 nM with human Dectin-1 isoform A [4]; 1.4 nM in the assay with human Dectin-1 isoform A [5]; 0.6 nM in assay [6]. The EC50 in assay [7] amounted to 0.6 nM; in the assay with human Dectin-1 isoform B [9], 9.3 nM; in assay [10], 14 nM. For the same molecule, the “IFNg secretion in PBMC, immobilized antibody (fold change to isotype)” value in [8] was 1.6 fold change to isotype. For the same molecule, in assay [8], the “IL6 secretion in PBMC, immobilized antibody (fold change to isotype)” value was 2.6 fold change to isotype. Further, the “TNFa secretion in PBMC, immobilized antibody (fold change to isotype)” value in assay [8] is 3 fold change to isotype.

B2: 2M24 CD20 NF (bispecific antibody)
chain 1: not shown
chain 2: not shown
chain 3: not shown
chain 4: QIVLSQSPAILSASPGEKVTMTCRASSSVSYIHWFQQKPGSSPKPWIYATSNLASGVPVRFSGSGSGTSYSLTISRVEAEDAATYYCQQWTSNPPTFGGGTKLEIKRTVAAPSVFIFPPSDEQLKSGTASVVCLLNNFYPREAKVQWKVDNALQSGNSQESVTEQDSKDSTYSLSSTLTLSKADYEKHKVYACEVTHQGLSSPVTKSFNRGEC
modifications: non-fucosylated Fc glycan
For B2, in assay [11], the “EC50 (read off the curve)” value is about 0.1 µg/mL.

B3: 2M24/Trop-2 hIgG1 bispecific antibody (bispecific antibody, V domains shown)
VH 1: QVQLVQSGAEVKKPGASVKVSCKSSGYTFTDYYIHWVRQAPGQGLEWMGWINPNSGDTNYAQKFQGRITMTRDTSISTAYLELSRLRSDDTAVFYCARNSGSYSFGYWGQGTLVTVSS
VL 1: DIQMTQSPSSVSASVGDRVTITCRASQGISSWLAWYQQKPGKAPKLLIFGASSLQSGVPSRFSGSGSGTDFTLTVSSLQPEDFATYYCQQAYSFPFTFGPGTKVDIE
VH 2: QVQLQQSGSELKKPGASVKVSCKASGYTFTNYGMNWVKQAPGQGLKWMGWINTYTGEPTYTDDFKGRFAFSLDTSVSTAYLQISSLKADDTAVYFCARGGFGSSYWYFDVWGQGSLVTVSS
VL 2: DIQLTQSPSSLSASVGDRVSITCKASQDVSIAVAWYQQKPGKAPKLLIYSASYRYTGVPDRFSGSGSGTDFTLTISSLQPEDFAVYYCQQHYITPLTFGAGTKVEIK
notes: Human IgG1; also called anti-Dectin-1 (2M24)/anti-Trop-2 bispecific antibody
For B3, in assay [12], the “EC50 (read off the curve)” value is about 3 nM.

B4: parental anti-Trop2 monospecific antibody (antibody, V domains shown)
VH: QVQLQQSGSELKKPGASVKVSCKASGYTFTNYGMNWVKQAPGQGLKWMGWINTYTGEPTYTDDFKGRFAFSLDTSVSTAYLQISSLKADDTAVYFCARGGFGSSYWYFDVWGQGSLVTVSS
VL: DIQLTQSPSSLSASVGDRVSITCKASQDVSIAVAWYQQKPGKAPKLLIYSASYRYTGVPDRFSGSGSGTDFTLTISSLQPEDFAVYYCQQHYITPLTFGAGTKVEIK
For B4, the “EC50 (read off the curve)” value in the assay with Trop-2 is about 8 nM.

B5: 2M24/Nectin-4 hIgG1 bispecific antibody (bispecific antibody, V domains shown)
VH 1: QVQLVQSGAEVKKPGASVKVSCKSSGYTFTDYYIHWVRQAPGQGLEWMGWINPNSGDTNYAQKFQGRITMTRDTSISTAYLELSRLRSDDTAVFYCARNSGSYSFGYWGQGTLVTVSS
VL 1: DIQMTQSPSSVSASVGDRVTITCRASQGISSWLAWYQQKPGKAPKLLIFGASSLQSGVPSRFSGSGSGTDFTLTVSSLQPEDFATYYCQQAYSFPFTFGPGTKVDIE
VH 2: EVQLVESGGGLVQPGGSLRLSCAASGFTFSSYNMNWVRQAPGKGLEWVSYISSSSSTIYYADSVKGRFTISRDNAKNSLSLQMNSLRDEDTAVYYCARAYYYGMDVWGQGTTVTVSS
VL 2: DIQMTQSPSSVSASVGDRVTITCRASQGISGWLAWYQQKPGKAPKFLIYAASTLQSGVPSRFSGSGSGTDFTLTISSLQPEDFATYYCQQANSFPPTFGGGTKVEIK
notes: Human IgG1
Molecule B5 registered an EC50 in assay [13] of 2.65 nM.

One may read the EC50 as the concentration giving half of the maximal effect. As a reminder, the EC50 (read off the curve) is the concentration at which the effect is half-maximal.
